Measurements: the DeepSol protein solubility set

Assay: soluble on expression in E. coli; label from the status in PepcDB or PDB records

Sequence	soluble on expression in E. coli
MGSDKIHHHHHHMTEIQTIRKKVEQQITSLQNETDEIAEFNQAKVLDAFQENKVSDFHFNPSTGYGYDDEGRDTLERVYASVFKTEAALVRPQIISGTHAISTVLFGILRPGDELLYITGEPYDTLEEIVGIRSEGQGSLKDFQIGYDAVPLLPNGEIDYPAVSKKISANTKMIGIQRSRGYADRPSFTIEKIKEMVTFVKNINPNIIVFVDNCYGEFVERIEPTEVGADIIAGSLIKNPGGGLAKTGGYIAGRNTLVDLCGYRLTTPGIGREAGASLYSLLEMYQGFFLAPHVTAQAIKGARFTAAMLAEFGVEADPLWDAKRTDLIQSVSFHSKDKMIAFAQAIQAASPVNAHVLPIGAYMPGYEDDVIMAAGTFIQGASLELTADGPIREPYQLYVQGGLTYEHVKIAVTRAIENSL	not soluble
MSLQLLAEIVTVHTKHPFIIARGGQSEYQVVWVRLIDADGAEGWGEASPSKYYGETADTVMVALQRFAPVLAGADAWSIEAIERELEKAMRWNAAARCAVSAALHDLAARRLGVPLWKMWGLDRQATPISSFTIGIAPDAATLRARVREAAHYPLLKIKLGSSWDREVLRIVREEAPKAQLRVDANAAWTAKQALGMLDVLNEVGVDMLEQPLPPQELAGLRFVRERSNIPVVADESCLVASDIPKLEGIVDGVNIKLAKCGSLREALRMIAVARAHGMRVMCGCMIETTLGIAAAAHFSPLLDDADLDGAALLSDDPFDGPGIPDGRVVLGDAPGLGVTRRAGNEGHHHHHH	soluble
DPHAYEHNLKSWVGNTPVFATVNQLDLDEEQSTLLKGEVGVDWYWMGYEAGKYLAERHPKGSGKTNIALLLGPRTRGGTKPVTTGFYEAIKNSDIHIVDSFWADNDKELQRNLVQRVIDMGNIDYIVGSAVAIEAAISELRSADKTHDIGLVSVYLSHGVYRGLLRNKVLFAPTDKMVQQGRLSVMQAAHYLRHQPYEKQASPIIKPLTPKTLHDDTIEESLSPSEYRPTFSIKAVD	not soluble
MTDHSIRSRALGAYLGLACGDALGATVEFLTKGEIAHQYGVHKHIKGGGWLKLPAGQVTDDTEMSIHLGRAILAAPEWDARRAAEEFAVWLKGVPVDVGDTTRRGIRRFIMHGTLSEPESEYHAGNGAAMRNLPVALATLGDDAAFERWTVEQAHITHCNAMSDAATLTLGHMVRRLVLGGDVRDVRDESNKLIAKHRQFKFQPYRGLATAYIVDTMQTVMHYYFQTDSVESCVVETVNQGGDADTTGAIAGMLAGATYGVETIPPRWLRKLDRDVYNEICAQVDGLLARAPALKQG	soluble
GPGSMLRVSLACRVTAARSAAPHTTSSSSSLVESVTSVFRSSRYLRHAPPRLYVTCSHDQGIPLHGCGRHMTTVLDVSREASPNAPPHTQSIYLLTSTSISDVEFKDSAAQSQVLVGLPQVQSIDAIHRFCDTYAATLSRVHHILLPGGVSPLQSSLIKQLLEHIPQARLVCNGFGHALLTNATFHDGVQRAVLENEPDAPPELLRFAALPADRVSSMADGDTVAVDVAKSEAESSAPVAARALRVVAVKSKGQQQRRREHSQTHHPAHFTNEALFYYDDVFNALFVGHTLHRLPWLPTVLTEASRELFLPMPPPLATQRPLSRPSPLLDTWRVLESCEDVVEALRRTPELERVLAGSYGELCGNVEDCIAGLESSSDALERLRSRLARRLTTDTSRDVHRWSTALLKRIVHEVVCTQKASEPTSSEVQEAFLCWARTDGEWGRLSTCLAHAAMVLPPSTETGEADGASSSAADSFAAHDSVPAAGATAAGESAAPEALQGTHGVELLVAVFNRKGLQGLIRTVQRETIDVQVFLAMSEEDLKKVFKATFGITKRLMLLQDELRKNL	not soluble
MSSRIRINTKSLLVQPGYSGSKMRDRLFFLLSKYGIRPRDSIGQHFLIIEDVIEKAIETANVNENDVILEVGPGLGFLTDELAKRAKKVYTIEIDQKIIEILKKEYSWNNVKIIQGDAVRVEWPKFNKVVSNIPYKISSPFTFKLLKTDFERAVVMYQLEFALRMVAKPGSRNYSRLSLMAQALGNVEIVMKIGKGAFYPRPKVDSALVLIEPRKDKIVLNENLVKALFQHRRKTVPRALKDSIHMLGVSKDEIRGIINNVPHSNKRVFQLYPEEVKDIEEYLKKHGIIS	soluble
MGSDKIHHHHHHMKISEVATPNFLLDLDQLEKNIDKIQQICTNNNKQLWPMLKTHKSTYIARLQKNAGASGFLVGTLDEGEALIKAGFEDIMLAYPYMGEVNINRIVTMASKINLICATDNIECAKAYSEAFSKSKIECKLLIIVDCGLHRFGVEPEKVVELATEISKLENIKIVGISSHPGQVYGCSSPEGVPDVCVQEDSSMEKAYKALTDNGFNIEIVASGSTPTVESEAACKTITAVRPGNYVYYDAIQIGLGCATEDMCALTVVCTVISKNSSGYYLIDCGSKCLGLDKGAHGNSSIVGYGRVCGHPELTIDSLSEEVGKIKVNGETDIKIGDRIRIIPNHSCSTANLTSNLLGFRGDTIEKVIEVDIRENSKQIIL	not soluble
MKKVYIKTFGCQMNEYDSDKMADVLGSAEGMVKTDNPEEADVILFNTCSVREKAQEKVFSDLGRIRPLKEANPDLIIGVGGCVASQEGDAIVKRAPFVDVVFGPQTLHRLPDLIESRKQSGRSQVDISFPEIEKFDHIPPAKVDGGAAFVSIMEGCSKYCSFCVVPYTRGEEVSRPFEDVLTEIAGLAAQGVKEITLLGQNVNAYRGLMSDGEIADFALLLEYVHEVPGVERIRFTTSHPREFSQRIIDCYAKLPKLVSHLHLPVQSGSDRVLMAMKRGYTGLEYKSIIRKLRAIRPDLCLSSDFIIGFPGETEADFEQTLKLVRDCEFDFSFVFIYSPRPGTPAANLPDDTPHAEKVRRLEALNEVIEAKGYAINQSMVGTVQRVLVENVSKKDATMLAARTANNRVVNFAGHPRLLGRMIEVKITAAFPHSLAGEALTSESALEHHHHHH	soluble
MMDAKALWQRYQDWLYYHEGLGLYLDISRMRFDDSFVESLQSKFDKAFADMAALEKGAIANPDENRMVGHYWLRNPDLAPSPELTQEIVQTLEQIEAFADQVHTGAVHPPKESRFTDIISIGIGGSALGPQFVAEALSPDSPPLNIHFIDNTDPRGIDRVLSQINNLASTLVLVISKSGGTPEPRNGMIEVKKAYAAKNLDFSKYAVAVTGPDSNLDKVAKSEGWLARFSMYDWVGGRTSEMSAVGLVPAALQGIDIRAMLEGAKEMDDATRVADLKNNPAALLALAWYYSGKGKGGKDMVVLPYKDSLLLFSRYLQQLVMESLGKEKDLDGKIVYQGIAVYGNKGSTDQHAYVQQLREGVPNFFATLIEVLEDRQRKSPEIDPGVTSGDYLCGFLLGTRQALYENNRDSITVTIHQVNPRTVGALIALYERAVGLYASLVNINAYHQPGVEAGKKAAAVILDLQQKVMTVLQTERKALSISEIADKAGASEQIEAIYKILRHLHTNNRGVVLTGDLAKPGSLTVSLS	not soluble
MLITSYNPSELGDTLITILRPDTATQTIETHANVTRISDADSGETLGYNFFDVSKTLGDLDANGQVHLTAEQVEQLNNLLKTNDFEPELVLDTDPKFVVGYVESAEAHPKSDHLQITKTNVGLEQPLQIVSGSPNMQANILVVVAKVGAMMPSGLIIWPGELRGVESDGMIVSGRELRLPNAPQRPGALILPADYQPVGAAFDFKRAQTLFTALEHHHHHH	not soluble
MSSPSFPRVLIFDSGVGGLSVYREIEARLPQLNYIYLFDNAAYPYGELTQETLIARVDTLVTRMVEQERIDLVVIACNTASTIVLPVLRAKLTIPVVGVVPAIKPASLIASKAIGLIATPATVKRQYTQELIRDFSANKNVELLGSTRLVNMAEEKLRGKPLDLEELASILQPLKNTIDVAVLGCTHFPLIKEEIQQVLGEQVQLIDSGLAIARRVQELLGIEQAVGAKQKHRIYASAPPWEESALNIKLEQLGFNPVQPFLHPI	not soluble
MSLAKPFDAYISVTVKARGNGTVHLGPIHKRWSRLDMGQFLLGGSRFVDSQRQEFIYYFHPGDMKPPLNVYFSGYRTAEGFEGYYMMKRMNAPFLLIGDPRVEGGSFYIGSSEYEQGIINVIDETLEKLNFKSHELILSGLSMGSFGALYYGAQLNPQAIIVGKPLVNIGTIAEHMRLLRPEEFGTALDVLVSNEGDTSQASIQALNQKFWQTFQKKSLSQTVFAIAYMQHDDYDPHAFQELLPVLTAHQARVMNRSIPGRHNDDSEGHHHHHH	not soluble
MGSDKIHHHHHHMFLYELFKEQRKLYNFTQEEFYEGIFKKRAASSFEVHNTHDLKVKDLPVLSDRSMMSILEIIHYAKEEFISPYDEDLNSLFDIFQNNTEKENKDYIYKLYKKSIELKEHSIIYWNLYLIIKIQCSEYDSRIVPTDSQDLSELKKMILSKQKFTLYDYKIVTNLSLVFSYKELQPFLSSLFPLDSNAPTVTSEAAYYLLENITTKLVQNRDFESCTEVLNIYNDLLQKFPSYKYKLNYLITYNLVGYFLTNNMDSLNNSIKYVDLLGDLENVELAKLMKDNIYLMISKKNNGSMSKPDTLLTKENNHIKLNEKKITKRLE	not soluble
MYMNVLIISDSHGLEEELQTIAKRHEAEVDLMIHCGDSELETRHPALEPYAVVKGNCDFAGDFKDELLLTAGSRKILVTHGHLHGIKQTLLNVYYRAEELGADVICFGHSHIAGSEVLRGKLMINPGSIRLPRVRRTESYAILTLENDAATVRFYDQAGNEIEDLQNRVTLLEHHHHHH	not soluble
MSKKVLIITGDAVEALEVYYPYYRLLEEGHDVTIAAPKKKKLHTVVHDFADWDTYVEKQGYLIDAHASFAEVDPAQYDALVIPGGRAPEYIRLDENVQRIVRHFFEANKPIAAICHASLIFETMPDLLKGRSLTAYIACKPGVEALGATYVSDNTVHVDGNLVSAHAWPDLPAFMREFLRLLQ	soluble
MGSDKIHHHHHHMIGICCLFIVTSCQNREPQGASIQGKDFAQSTEKSVIMVMIDSMTADLLDAAKEEGIIPGLSFLMENGTYFDELIAPFPSMSVVIESTLITGSLPDEHKVPGLVWYHAEEDRLVDYGSTPETYMKLGLNRVLFDDLSNLNNRHLSKDVPTIHEILQDSQMSTGSVNALVYRGNTSHKVNLPEPFDTWMQGQPFETKGPDLLSFGTIIEPKVIQAKELDDDHFLDLYGLNDSYGTAVVRTLIEKNEQPQFLFLFMPDFDQATHDHGQLNLEDFEKVDHAFQDILNSYDSWEQALEENIFIVIGDHGQSQIASTASDAIIPLPTLYEEYEIASLMDAPSDGEIVIANNHRMVYVYSFQPAHSFDTLANEALEDLRIQFAAYLEDDELVIKAPEHKEPLKVKKGGSWIDPYGQTWTIEGNEQIGDVFFDHDCKRIMYGENPDLFNQLFHALDSHTSTLVLTAKPGYIFESEGAPAHIGGGEHGGIHEEDTKAAMIIAGTDKAPAHLRMVDLKDFIIRLMTEEN	not soluble
MKFWKKGLTAAALLAVAAVTLTACGGSSEKKATEKSEDGKTKLTVTTWNYDTTPEFEKLFRAFEAENPDITIEPVDIASDDYDTKVTTMLSSGDTTDILTMKNLLSYSNYALRNQLVDLTDHVKDLDIEPAKASYEMYEIDGKTYAQPYRTDFWVLYYNKKMFDEAGIAYPDNLTWDEYEALAKKLSKPEEQVYGAYQHTWRSTVQAIAAAQNNANLIEPKYNYMETYYDRALRMQKDQSQMDFGTAKSTKVTYQSQFENSKAAMMYMGSWYMGTLLTNIDDGKTNVEWGIAEIPQQEKGKATTFGSPTSFAINKNSKKQKAAQKFLDFASGKEGAKLLAEVGVVPSYKTDEIDKIYFARKGMPSDEVSQKAFNPDTINLEFPSDKNGAAIDKVLQEEHDLIMVGDEKPKDGIANMEKRVKAEID	not soluble
MSHPWRSRGEKRTIMFGYTPSDTILKYLKDMRDLINRAILNAYSIARSNDDSLPSPITLRRSLKDYYDNNVAYAKHHINPVCRTAIAMLRSYKKNNGRLKVVKAKRLAMRIDSELAKIEDNRLRITIRPNVYEYVDIVDRNKKYSEYSKYPISEVLLTDNRVYITFITGSDDKPVIANNIIGFDLNFKSVDYTVIKDNRIAYVDSIDTYDIAKTQRDYERKRRKIQKHIRNPAKRIRKLKEAKHRQRNIVRDKLQKLTTNIVKNNEDKTFVFEDLTNIKKKGKKHKDHKRDGQSSKRFRTDINRWPYRLFQMFVEYKSKNETLYVDPEGTSSECPVCGGILEHPIWKMSKCDNCGATFDRDRLSSLSIAVRGLHLCGTPFSVSGSASWDSMKDNYLYR	not soluble
